Laboratory results published in patent US20190071480A1 (Biogen, published 2019).
Bridges are numbered along the chain shown (N, C = ends).

How the values were obtained:
[1] = molecular target: T1, extracellular domain of activin receptor type IIB (ActRIIBecd), biotinylated (Homo sapiens (Human), UniProt Q13705 27-117, amino-biotinylated with amine-PEG3-Biotin); assay: BIAcore SPR, biotinylated ActRIIBecd on chip; SD ±12.12 nM
T1 construct: immobilised on a streptavidin-coated sensor chip; also called biotinylated ActRIIBecd; extracellular domain of ActRIIB
T1 sequence: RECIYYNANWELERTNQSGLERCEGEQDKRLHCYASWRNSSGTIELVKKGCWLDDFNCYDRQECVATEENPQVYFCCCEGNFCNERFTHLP
Protocol: (§1) Biosensor experiments. In one embodiment, experiments were performed on a BIAcore™ T100/T200 instrument (Pharmacia Biosensor AB) in the multichannel mode (serial flow path involving flow cells 1+2+3+4). Flow rate was 10 μl/min; temperature was 25° C.; and data were recorded at 2.5 points/s. All four segments of a sensor chip CMS were coated with streptavidin (Sigma) to a density of 2000 pg/mm² (2000 resonance units) by the aminocoupling procedure. ActRIIBecd (10 mg) and amine-PEG3-Biotin (10 mg, Pierce, Rockford, Ill.) were dissolved in 200 μl H₂O and 10 mg NaCNBH₃ was added to prepare biotinylated ActRIIBecd. The reaction mixture was heated at 70° C. for 24 h, after that a further 10 mg NaCNBH₃ was added and the reaction was heated at 70° C. for another 24 h. After cooling to room temperature, the mixture was desalted with the spin column (3,000 molecular weight cut off (MWCO)). […] Sensograms were recorded during flow of the analyte (the ActRIIBecd-associated polypeptides (i.e., domains) as previously described) first through flow cell 1 (control) then through flow cell 2 (biotinylated ActRIIBecd). […] The sensograms obtained at 1.11, 3.33, 10, 30, and 90 nM analyte were evaluated for equilibrium binding, association rate, and dissociation rate by using the programs supplied with the instrument (BIA evaluation 2.1; Software Handbook. 1995; Pharmacia Biosensor AB).

[2] = molecular target: T1, extracellular domain of activin …; assay: BIAcore SPR, biotinylated ActRIIBecd on chip; SD ±23.17 nM
Protocol: as §1

[3] = molecular target: T1, extracellular domain of activin …; assay: BIAcore SPR, biotinylated ActRIIBecd on chip; SD ±24.42 nM
Protocol: as §1

[4] = molecular target: T1, extracellular domain of activin …; assay: BIAcore SPR as Example 5 (method not restated); SD ±1.41 nM
Protocol: as §1

[5] = molecular target: T1, extracellular domain of activin …; assay: Mean KD column of Table 5; method not restated (BIAcore as Example 5); species also listed in Table 4
Protocol: Biosensor experiments. In one embodiment, experiments were performed on a BIAcore™ T100/T200 instrument (Pharmacia Biosensor AB) in the multichannel mode (serial flow path involving flow cells 1+2+3+4). Flow rate was 10 μl/min; temperature was 25° C.; and data were recorded at 2.5 points/s. All four segments of a sensor chip CMS were coated with streptavidin (Sigma) to a density of 2000 pg/mm² (2000 resonance units) by the aminocoupling procedure. ActRIIBecd (10 mg) and amine-PEG3-Biotin (10 mg, Pierce, Rockford, Ill.) were dissolved in 200 μl H₂O and 10 mg NaCNBH₃ was added to prepare biotinylated ActRIIBecd. The reaction mixture was heated at 70° C. for 24 h, after that a further 10 mg NaCNBH₃ was added and the reaction was heated at 70° C. for another 24 h. After cooling to room temperature, the mixture was desalted with the spin column (3,000 molecular weight cut off (MWCO)). Biotinylated ActRIIBecd was collected, freeze-dried and used for streptavidin (SA) chip preparation. Amino-biotinylated ActRIIBecd was then immobilized independently on flow cells 2-4 for 10 minutes at a flow rate of 5 μL/min and a concentration of 20 μM in 10 mM sodium acetate, pH 4.0, at a density of 50-250 resonance units (RU). The stored polypeptides were dissolved in glycine buffer (2.5 g of glycine, 0.5 g of sucrose, 370 mg of L-glutamate, 10 mg of sodium chloride, and 10 mg of Tween 80 in 100 mL water, pH 4.5) to prepare 10 mg/mL solution and then diluted with previous glycine buffer to prepare analytes with various concentration. Sensograms were recorded during flow of the analyte (the ActRIIBecd-associated polypeptides (i.e., domains) as previously described) first through flow cell 1 (control) then through flow cell 2 (biotinylated ActRIIBecd). The sensogram obtained for flow cell 1 was subtracted from the sensogram obtained for flow cell 2. The sensograms obtained at 1.11, 3.33, 10, 30, and 90 nM analyte were evaluated for equilibrium binding, association rate, and dissociation rate by using the programs supplied with the instrument (BIA evaluation 2.1; Software Handbook. 1995; Pharmacia Biosensor AB).

[6] = molecular target: T1, extracellular domain of activin …; assay: BIAcore SPR as Example 5 (method not restated); SD ±2.06 nM
Protocol: as §1

[7] = molecular target: T1, extracellular domain of activin …; assay: BIAcore SPR as Example 5 (method not restated); SD ±2.89 nM
Protocol: as §1

[8] = molecular target: T1, extracellular domain of activin …; assay: BIAcore SPR as Example 5 (method not restated); SD ±1.98 nM
Protocol: as §1

[9] = molecular target: T1, extracellular domain of activin …; assay: BIAcore SPR as Example 5 (method not restated); SD ±1.62 nM
[10] = molecular target: T1, extracellular domain of activin …; assay: BIAcore SPR as Example 5 (method not restated); SD ±1.79 nM
Protocol: as §1

[11] = molecular target: T1, extracellular domain of activin …; assay: BIAcore SPR as Example 5 (method not restated); SD ±2.62 nM
Protocol: as §1

[12] = molecular target: T1, extracellular domain of activin …; assay: BIAcore SPR as Example 5 (method not restated); SD ±2.31 nM
Protocol: as §1

[13] = molecular target: T1, extracellular domain of activin …; assay: BIAcore SPR as Example 5 (method not restated); SD ±3.12 nM
Protocol: as §1

[14] = molecular target: T1, extracellular domain of activin …; assay: BIAcore SPR as Example 5 (method not restated); SD ±1.09 nM
Protocol: as §1

[15] = molecular target: T1, extracellular domain of activin …; assay: BIAcore SPR as Example 5 (method not restated); SD ±1.70 nM
Protocol: as §1

[16] = molecular target: T1, extracellular domain of activin …; assay: BIAcore SPR as Example 5 (method not restated); SD ±2.21 nM
Protocol: as §1

[17] = molecular target: T1, extracellular domain of activin …; assay: BIAcore SPR as Example 5 (method not restated); SD ±1.56 nM
Protocol: as §1

[18] = molecular target: T1, extracellular domain of activin …; assay: BIAcore SPR as Example 5 (method not restated); SD ±3.09 nM
Protocol: as §1

[19] = molecular target: T1, extracellular domain of activin …; assay: BIAcore SPR as Example 5 (method not restated); SD ±2.88 nM
Protocol: as §1

[20] = molecular target: T1, extracellular domain of activin …; assay: Mean KD column of Table 5; differs from Table 4 (22.31)
Protocol: as §1

[21] = molecular target: T1, extracellular domain of activin …; assay: BIAcore SPR as Example 5 (method not restated); SD ±1.99 nM
Protocol: as §1

## AQAKHKQRKRLKSSCKRHPLY [Clone No. 10 domain (ActRIIBecd-associated polypeptide)]
[1]
  Kd: 36.4 nM

## AQAKHKGRKRLKSSCKRHPLY [Clone No. 11 domain (ActRIIBecd-associated polypeptide)]
[2]
  Kd: 63.7 nM

## AQAKHKQYKRLKSSCKRHPLY [Clone No. 12 domain (ActRIIBecd-associated polypeptide)]
[3]
  Kd: 58.4 nM

B1: SEQ ID NO: 200, cysteine pairs C23-C27^a, C58-C91^a, C59-C93^a (designed binder)
chain: VDFSDVGWNDWIVAPPGYHAFYCHGECPFPLADHLNSTNHAIVQTLVNSVNSKIPKACCVPTELSAISMLYLDENEKVVLKNYQDMVVEGCGCR
modifications: disulfides C23-C27 (intra), C58-C91 (intra), C59-C93 (intra)
[4]
  Kd: 18.6 nM
[5]
  Kd: 18.6 nM

B2: SEQ ID NO: 200, cysteine pairs C23-C27^a, C58-C93^a, C59-C91^a (designed binder)
chain: B1 chain
modifications: disulfides C23-C27 (intra), C58-C93 (intra), C59-C91 (intra)
[6]
  Kd: 20.1 nM
[5]
  Kd: 20.1 nM

B3: SEQ ID NO: 200, cysteine pairs C23-C58^a (designed binder)
chain: B1 chain
modifications: disulfides C23-C58 (intra)
[7]
  Kd: 47.6 nM
[5]
  Kd: 47.6 nM

B4: SEQ ID NO: 200, cysteine pairs C23-C27^a, C58-C91^b, C59-C93^b (designed binder)
chain: B1 chain
modifications: disulfides C23-C27 (intra), C58-C91 (inter), C59-C93 (inter)
notes: homodimer by intermolecular disulfide
[8]
  Kd: 19.8 nM
[5]
  Kd: 19.8 nM

B5: SEQ ID NO: 218, cysteine pairs C15-C15^b, C29-C62^a, C30-C64^a (designed binder)
chain: AQAKHKQRKRLKSSCKRHPLYNSKIPKACCVPTELSAISMLYLDENEKVVLKNYQDMVVEGCGCR
modifications: disulfide 29-62, 30-64; also: homodimer via intermolecular C15-C15 disulfide
notes: as for B4
[9]
  Kd: 16.2 nM
[5]
  Kd: 16.2 nM

B6: SEQ ID NO: 218, cysteine pairs C15-C15^b, C29-C64^a, C30-C62^a (designed binder)
chain: B5 chain
modifications: disulfide 29-64, 30-62; also: homodimer via intermolecular C15-C15 disulfide
notes: as for B4
[10]
  Kd: 18.4 nM
[5]
  Kd: 18.4 nM

B7: SEQ ID NO: 218, cysteine pairs C15-C30^a (designed binder)
chain: B5 chain
modifications: disulfide 15-30
[11]
  Kd: 40.9 nM
[5]
  Kd: 40.9 nM

B8: SEQ ID NO: 230, cysteine pairs C23-C27^a (designed binder)
chain: VDFKDVGWNDHAVAPPGYHAFYCHGECPFPLADHLNSDNHAIVQTKVNSVGQAKRKGYKRLKSSCKRHPLY
modifications: disulfides C23-C27 (intra)
[12]
  Kd: 17.9 nM
[5]
  Kd: 17.9 nM

B9: SEQ ID NO: 206, cysteine pairs C67-C71^a, C8-C41^a, C9-C43^a (designed binder)
chain: NSKIPKACCVPTELSAISMLYLDENEKVVLKNYQDMVVEGCGCRVDFSDVGWNDWIVAPPGYHAFYCHGECPFPLADHLNSTNHAIVQTLVNSV
modifications: disulfides C67-C71 (intra), C8-C41 (intra), C9-C43 (intra)
[13]
  Kd: 15.5 nM
[5]
  Kd: 15.5 nM

B10: SEQ ID NO: 206, cysteine pairs C8-C71^a (designed binder)
chain: B9 chain
modifications: disulfides C8-C71 (intra)
[14]
  Kd: 49.7 nM
[5]
  Kd: 49.7 nM

B11: SEQ ID NO: 206, cysteine pairs C67-C71^a, C8-C43^a, C9-C41^a (designed binder)
chain: B9 chain
modifications: disulfides C67-C71 (intra), C8-C43 (intra), C9-C41 (intra)
[15]
  Kd: 17.7 nM
[5]
  Kd: 17.7 nM

B12: SEQ ID NO: 212, cysteine pairs C59-C59^b, C8-C41^a, C9-C43^a (designed binder)
chain: NSKIPKACCVPTELSAISMLYLDENEKVVLKNYQDMVVEGCGCRAQAKHKQRKRLKSSCKRHPLY
modifications: disulfide 8-41, 9-43; also: homodimer via intermolecular C59-C59 disulfide
notes: as for B4
[16]
  Kd: 18.1 nM
[5]
  Kd: 18.1 nM

B13: SEQ ID NO: 212, cysteine pairs C59-C59^b, C8-C43^a, C9-C41^a (designed binder)
chain: B12 chain
modifications: disulfide 9-41, 8-43; also: homodimer via intermolecular C59-C59 disulfide
notes: as for B4
[17]
  Kd: 19.3 nM
[5]
  Kd: 19.3 nM

B14: SEQ ID NO: 212, cysteine pairs C41-C59^a (designed binder)
chain: B12 chain
modifications: disulfide 41-59
[18]
  Kd: 44.3 nM
[5]
  Kd: 44.3 nM

B15: SEQ ID NO: 224, cysteine pairs C15-C44^a (designed binder)
chain: GQAKRKGYKRLKSSCKRHPLYVDFKDVGWNDHAVAPPGYHAFYCHGECPFPLADHLNSDNHAIVQTKVNSV
modifications: disulfides C15-C44 (intra)
[19]
  Kd: 48.9 nM
[5]
  Kd: 48.9 nM

B16: SEQ ID NO: 224, cysteine pairs C44-C48^a (designed binder)
chain: B15 chain
modifications: disulfides C44-C48 (intra)
[20]
  Kd: 21.5 nM
[21]
  Kd: 22.3 nM
